Test: yeast display, Sf9 membrane polyspecificity reagent, FACS + sequencing; frameworks hold sequencing errors
Procedure, shortened: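 Using colony PCR, genes from sorted yeast display clones were amplified, then sequenced on MiSeq at 2 × 250 and filtered by CDR length. The clones had been stained with 10% biotinylated, detergent-solubilized Sf9 membrane reagent for 1 hour at 4 °C and sorted by FACS into low and high (top ~1%) gates on anti-HA and streptavidin fluorescence. Polyreactivity labels come from the gate of origin.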

Row | Sequence | polyreactivity (PSR sort gate)
1 | QVQLVESGGGLVQAGGSLRLSCAASGRTIGPYVMGWYRQAPGKERELVAAITYIGDRTYYADSVKGRFTISRDNAKNTVYLQMNSLKPEDTAVYYCNADFFSRWGYRYMDYWGQGTQVTVSS | low polyreactivity
2 | QVHLVESGGGLVQAGGSLCLSCAASGSIFINAMGWYRQAPGKERELVATIRWRGGTTYYADSVKGRFTISRDNAKNTVYLQMNSLKPEDTAVYYCAARVHSVHYPYYYWGQGTQVTVSS | low polyreactivity
3 | QVQLVESGGGLVQAGGSLRISCAASGSIFTSNVMGWYRQAPGKERELVAAITITGTTNYADSVKGRFTISRDNAKNTVYLQMNSLKPEDTAVYYCAKRYYRFYQGWPPEDYWGQGTQVTVSS | low polyreactivity
4 | QVQLVESGGGLVQAGGSLRLSCAASGRTFLTNAMGWYRPAPGKERELVAAISSGASTNYADSVKGRFTISRDNAKNTVYLQMNSLKPEDTAVYYCAAQLTDYQSKTLSYDYWGQGTQVTVSS | low polyreactivity
5 | QVQLVESVGGLVQAGGSLRLSCAASGFIFYSNAMGWYRKAPGKERELVAAISRSGGSTYYADSVKGRFTISRDNAKNTVYLQMNSLKPEDTAVYYCNVYCYDWWGYDYWGQGTQVTVSS | high polyreactivity
6 | QVQLVESGGGLVQAGGSLRLSCAASVSPFWLNAMGWYRPAPGKEREFVAAITVGGGSTYYADSVKGRFTISRDNAKNTDYLQMNSLKPEDTAVYYCAALYRFWYPGNSYDYWGQGTQVTVSS | high polyreactivity
7 | QVQLVESGGGLVQAGGSLRLSCASSGRTFNFYAMGWYRQAPGKERELVAAISHGDSTYYADSVKGRFTISRDNAKNTVYLQMNSLKPEDTAVYYCAASQKYYLLKYEYWGQGTQVTVSS | low polyreactivity
8 | QVQLVESGGGLVQAGGSLRLSCAASGSILGTYAMGWYRQAPGKERELVAAITLSTDGTYYADSVKGRFTISRDNAKNTVYLQMNSLKPEDTAVDYCAAPWNWRWVTQWGYYVRADYFWGQGTQVTVSS | low polyreactivity
9 | QVQLVESGGGLVQAGGSLRLSCAASGATFTFYAMGWYRQAPGKERELVATINWSGGSTYYADSVKGRFTISRDNSKYTVYLQMNSMKPEDTAVFYCNAACPFKSVEYWGQGTQVTVSS | low polyreactivity
10 | QVQLVESGGGLVQAGGSLRLSCAASGSIFYYNAMGWYRQAPGKERELVAAISVSGGSTYYADSVKGRFTISRDNAKNTVYLQMNSLKPEDTAVYYCAAEWLYYYWLPGRADYLEYDYWGQGTQVTVSS | low polyreactivity
11 | QVQLQESGGGLVQAGGSLRLSCAASGYIFPRIYMGWYRQAPGKEREFDAGISYDAITNYADSVKGRYTISLDNAKNTVYLQMNSLKPEDTAVYYCAVSYYGTPLFTYWGQGTQVTVSS | high polyreactivity
12 | QVQLVESGGGLVQAGGSLRLSCAASGITIRRYGMGWYRQAPGKERELVATITRDGRTYYADSVKGRFTISRDNAKNTVYLQMNSLKPEDTAVYYCARPARYSYGDGYWGQGTQVTVSS | low polyreactivity
13 | QVQLVESGGGLVQAGGSLRLSCAASGSTFWSYAMGWYRQAPGKEREFVAAISSSDDSTYYADSVKGRFTISRDNAKNTVYLQMNSLKPEDTAVYYCATSWYIYPYDYWGQGTQVTVSS | low polyreactivity
14 | QVQLVESGGGLVQAGGSLRLSCAASGRISSYYAMGWYRQAPGKEREFVAAITRSSGSTYYADSVKGRFTISRDNAKNTVYLQMNSLKPEDTAVYYCAADYYWTTFSRFDYWGQGTQVTVSS | low polyreactivity
15 | QVQLVESGGGLVQAGGSLRLSCAASGSTFSAYAMGWYRQAPGKERELVASNSYSGSSTYYADSVKGRFTISRDNAKNTVYLQMNSLKPEESAVYYCAAVYVRKGTRYGYWGQGTQVTVSS | high polyreactivity
16 | QVQHVESARGLVHAGGSLRLSCAASGGTFQYYAMGLSRQAPGKERELVAAISSSGSTYYADSVKGRFTISRDNAKNTVYLQMNSLKPEDTAVYYCAAGHISIYYYTFYYWGQGTQVTVSS | high polyreactivity

Row | Sequence | polyreactivity (PSR sort gate)
17 | QVQLVESGGGLVQAGGSLRLSCAASGSTFRDNAMGWYRQAPGTERELVAAISRRGGNTYYADSVKGRFTISRDNAKNTVYLQMNSLKPEDTAVYYCASEVKTSYSYTHDGYWGQGTKVTVSS | high polyreactivity
18 | QVQLVESGGGLVQAGGTLRLSCAASGITFWYYARGWYRPAPGKERELVAVISYSGGIKSYADSVKGRFTISRENAKNTVNLQMNSMKPEDTAVFYCYTLYGRFKAKVYKYGSWGQGTQVTVSS | high polyreactivity
19 | QVQLVESGGGLVQAGGSLRLSCAASGRTVPYAMGWYRQAPGKERELVATITYRVSTYYADSVKGRFTISRDNAKNTVYLQMNSLKPEDTEVYYCNTVTYPYVPALYDYWGQGTQVTVSS | high polyreactivity
20 | QVQLVESGGGLVQAGGSLRLSCAASGRIFRWYAMGWYRQAPGKERELVAAISKSGGTTNYADSVKGRFTISRDNAKNTVYLQMNSLKPEDTAVYYCAARRYPYGGYGYRYDYWGQGTQVTVSS | high polyreactivity
21 | QVQLVESGGGLVQAGGSLRLSCAASGFTFRWYAMGWYRQAPGKERELVAAISSSGGSTYYADSVKGRFTISRDNAKNTVYLQMKSLKPEDTAVYYCNTDANYLTNTIYDYWGQGTQVTVSS | high polyreactivity
22 | QVQLVESGGGLVQAGGSLRLSCAASGITFTSYAMGWYRQAPGKERELVAAISAGGGRTYYADSVKGRFTISRDNAKNTVYLQMNSLKPEDTAVYYCAVKYPELRTWGYYYWGQGTQVTVSS | high polyreactivity
23 | QVQLVESGGGLVQAGGSLRLSCAASGFTFFQNHRGWYRQAPGTERELVADISYRGRRPYYADSVKGRFTISRDNAKNTVYLQMNCLKPVDTAVYYCARRSSKPSSIQYYYCGQGTQVTVSS | high polyreactivity
24 | QVQLVESGGGLVQAGGSLRLSCAASGPMFTSNAMGWYRQAPGKERELVAAISRRGTRTYYADSVKGRFTISRDNAKNTVYLQMNSLKPEDTAVYYCAATTGEQEDYWGQGTQVTVSS | high polyreactivity
25 | QVQLVESVGGLVQAGGRLRLSCDASGFIFANYAMGWYRQATGKERELVAAITSGTGTNYADSVKGRFTISRDNAKNTVYLQMNSLKPEDTAVYYCAAYYTWLSEFGYWGQGTQVTVSS | low polyreactivity
26 | QVQLVESGGGLVQAGGSLRLSCAASGITFPYYAMGWYREAPGKERELVAAITQSGGSTYYADSVKGRFTISRDNAKNTVYLQMNSLKPEDTAVYYCAADSSRSVNYYRYDYWGQGTQVTLSS | low polyreactivity
27 | QVQLVESGGGLVQAGGSLRLSCAASGSTFGINAMGWYRQAPGKERELVAAIDASGGTTYFADSVKGRFTISRDNAKNTVYLQMNSLKPEDTAVYYCAADDNYYTFGYWGQGTQVTVSS | high polyreactivity
28 | QVHLVESGGGLVQPGGSLRLSCAASGNTFQSYARGWYRQAPRKEREFVAAIRQSGGSTYYAESLKGRFTISRDNSKYSVYLLMKRLKPEDTAVYYCGTGRSRVYNGRGDYWGQGTQVNVSS | high polyreactivity
29 | QVQLVESGGGLVQAGGILRLSCAPSGSTFRANAMGWYRQAPGKERELVAAITSGGSTNYADSVKGRFTISRDNAKNTVYLQRNSLKPEDTAVYYCADESYQEHSFYVYYGYDYWGQGTQVTVSS | low polyreactivity
30 | KVQLVESGGGLVQAGGSLRLSCAASGSNFVYNAMGWYRQAPGKEREFVAAISGSGGSTYYADSVKGRFTISRDNAKNTVYLQMNSLKPEDTAVYYCATAGRYGRYRTYPYRSKYDYWGQGTQVTVSS | high polyreactivity
31 | QEQLVESGGGLVQAGGSLRLSCAASGNTFSYNAMGWYRQAPGKEREVVAAISSRGVRTYYADSVKGRFTISRDNAKNTVYLQMNSLKPEDTAVYYCAADLWDWAYDYWGQGTQVTVSS | high polyreactivity

From the nanobody polyreactivity screen of Harvey et al. (2022)
